# Source: patent US20230002480A1
# Experiments:
# Assay in all cases: cell-based or functional assay
# [1] = biological target: HIV-1 Env of pseudovirus 1054_07_TC4_1499 (HIV-1)
# [2] = biological target: HIV-1 Env of pseudovirus 1056_10_TA11_1826 (HIV-1)
# [3] = biological target: HIV-1 Env of pseudovirus 246F C1G (HIV-1)
# [4] = biological target: HIV-1 Env of pseudovirus 249M B10 (HIV-1)
# [5] = biological target: HIV-1 Env of pseudovirus 62357_14_D3_4589 (HIV-1)
# [6] = biological target: HIV-1 Env of pseudovirus 6535.3 (HIV-1)
# [7] = biological target: HIV-1 Env of pseudovirus 7030102001E5(Rev-) (HIV-1)
# [8] = biological target: HIV-1 Env of pseudovirus CAAN5342.A2 (HIV-1)
# [9] = biological target: HIV-1 Env of pseudovirus CAP210.2.00.E8 (HIV-1)
# [10] = biological target: HIV-1 Env of pseudovirus CNE58 (HIV-1)
# [11] = biological target: HIV-1 Env of pseudovirus Ce0393_C3 (HIV-1)
# [12] = biological target: HIV-1 Env of pseudovirus Ce0682_E4 (HIV-1)
# [13] = biological target: HIV-1 Env of pseudovirus Ce703010054_2A2 (HIV-1)
# [14] = biological target: HIV-1 Env of pseudovirus Ce704809221_1B3 (HIV-1)
# [15] = biological target: HIV-1 Env of pseudovirus Du172.17 (HIV-1)
# [16] = biological target: HIV-1 Env of pseudovirus HIV-001428-2.42 (HIV-1)
# [17] = biological target: HIV-1 Env of pseudovirus HIV-16055-2.3 (HIV-1)
# [18] = biological target: HIV-1 Env of pseudovirus Q259.d2.17 (HIV-1)
# [19] = biological target: HIV-1 Env of pseudovirus Q842.d12 (HIV-1)
# [20] = biological target: HIV-1 Env of pseudovirus REJO4541.67 (HIV-1)
# [21] = biological target: HIV-1 Env of pseudovirus ZM233M.PB6 (HIV-1)
substance,measurement,setting,value
N49P19 (antibody),IC50,[1],2.85 µg/mL
same,IC80,[1],11.7 µg/mL
same,MPI,[1],99
same,IC50,[2],0.925 µg/mL
same,IC80,[2],3.15 µg/mL
same,MPI,[2],100
same,IC50,[3],> 50 µg/mL
same,IC80,[3],> 50 µg/mL
same,MPI,[3],19
same,IC50,[4],> 50 µg/mL
same,IC80,[4],> 50 µg/mL
same,MPI,[4],39
same,IC50,[5],37.4 µg/mL
same,IC80,[5],> 50 µg/mL
same,MPI,[5],51
same,IC50,[6],9.09 µg/mL
same,IC80,[6],28.3 µg/mL
same,MPI,[6],95
same,IC50,[7],0.95 µg/mL
same,IC80,[7],4.7 µg/mL
same,MPI,[7],100
same,IC50,[8],1.24 µg/mL
same,IC80,[8],4.4 µg/mL
same,MPI,[8],100
same,IC50,[9],> 50 µg/mL
same,IC80,[9],> 50 µg/mL
same,MPI,[9],0
same,IC50,[10],> 50 µg/mL
same,IC80,[10],> 50 µg/mL
same,MPI,[10],43
same,IC50,[11],> 50 µg/mL
same,IC80,[11],> 50 µg/mL
same,MPI,[11],31
same,IC50,[12],0.607 µg/mL
same,IC80,[12],2.32 µg/mL
same,MPI,[12],98
same,IC50,[13],> 50 µg/mL
same,IC80,[13],> 50 µg/mL
same,MPI,[13],0
same,IC50,[14],3.75 µg/mL
same,IC80,[14],19.2 µg/mL
same,MPI,[14],93
same,IC50,[15],> 50 µg/mL
same,IC80,[15],> 50 µg/mL
same,MPI,[15],30
same,IC50,[16],> 50 µg/mL
same,IC80,[16],> 50 µg/mL
same,MPI,[16],44
same,IC50,[17],> 50 µg/mL
same,IC80,[17],> 50 µg/mL
same,MPI,[17],30
same,IC50,[18],> 50 µg/mL
same,IC80,[18],> 50 µg/mL
same,MPI,[18],11
same,IC50,[19],0.182 µg/mL
same,IC80,[19],0.601 µg/mL
same,MPI,[19],100
same,IC50,[20],0.169 µg/mL
same,IC80,[20],0.859 µg/mL
same,MPI,[20],100
same,IC50,[21],> 50 µg/mL
same,IC80,[21],> 50 µg/mL
same,MPI,[21],4
N49P9 (antibody),IC50,[1],0.885 µg/mL
same,IC80,[1],2.44 µg/mL
same,MPI,[1],100
same,IC50,[2],0.386 µg/mL
same,IC80,[2],1.32 µg/mL
same,MPI,[2],100
same,IC50,[3],> 50 µg/mL
same,IC80,[3],> 50 µg/mL
same,MPI,[3],48
same,IC50,[4],0.203 µg/mL
same,IC80,[4],1.41 µg/mL
same,MPI,[4],97
same,IC50,[5],0.074 µg/mL
same,IC80,[5],0.307 µg/mL
same,MPI,[5],100
same,IC50,[6],0.552 µg/mL
same,IC80,[6],2.26 µg/mL
same,MPI,[6],100
same,IC50,[7],0.453 µg/mL
same,IC80,[7],2.03 µg/mL
same,MPI,[7],100
same,IC50,[8],2.09 µg/mL
same,IC80,[8],7.38 µg/mL
same,MPI,[8],100
same,IC50,[9],> 50 µg/mL
same,IC80,[9],> 50 µg/mL
same,MPI,[9],32
same,IC50,[10],0.03 µg/mL
same,IC80,[10],0.081 µg/mL
same,MPI,[10],100
same,IC50,[11],0.189 µg/mL
same,IC80,[11],0.595 µg/mL
same,MPI,[11],100
same,IC50,[12],0.049 µg/mL
same,IC80,[12],0.185 µg/mL
same,MPI,[12],100
same,IC50,[13],0.187 µg/mL
same,IC80,[13],0.898 µg/mL
same,MPI,[13],98
same,IC50,[14],0.133 µg/mL
same,IC80,[14],0.605 µg/mL
same,MPI,[14],100
same,IC50,[15],0.023 µg/mL
same,IC80,[15],0.178 µg/mL
same,MPI,[15],100
same,IC50,[16],0.022 µg/mL
same,IC80,[16],0.106 µg/mL
same,MPI,[16],99
same,IC50,[17],0.077 µg/mL
same,IC80,[17],0.274 µg/mL
same,MPI,[17],100
same,IC50,[18],0.807 µg/mL
same,IC80,[18],> 50 µg/mL
same,MPI,[18],74
same,IC50,[19],0.019 µg/mL
same,IC80,[19],0.057 µg/mL
same,MPI,[19],100
same,IC50,[20],0.071 µg/mL
same,IC80,[20],0.291 µg/mL
same,MPI,[20],100
same,IC50,[21],> 50 µg/mL
same,IC80,[21],> 50 µg/mL
same,MPI,[21],48
